# Legend:
# human liver cathepsin B = molecular target: T1, human liver cathepsin B (Homo sapiens, UniProt P07858); assay: In vitro cleavage of T7-SN-38-rucaparib by exogenous cathepsin B (RP-HPLC); type: in vitro ADME; settings: sodium acetate buffer with EDTA and DTT, pH 6.0, 37 °C, conjugate 210 µM, n = 3
# T1 construct: human liver cathepsin B stock (0.47 mg/mL, 324 U/mg, Merck Millipore); purchased Merck Millipore; host or cells: human liver (tissue-derived, as the product name says)
# Experimental: The cleavage profile of T7-SN-38-rucaparib was evaluated by following a published method. Using this method, 11 μL of human liver cathepsin B stock (0.47 mg/mL, 324 U/mg, Merck Millipore) was activated in 27.2 μL of activation buffer (30 mM DTT, 15 mM EDTA in H2O) for 15 min. This mixture was added to 4.9 mL of reaction buffer (150 mM sodium acetate buffer, 12 mM EDTA, 24 mM DTT in H2O, pH 6.0). Cleavage was initiated by adding the cathepsin B solution to the T7-SN-38-rucaparib stock solution (8) in DMSO (final concentration 210 µM). The reaction was allowed to proceed at 37 °C, and samples were taken and analyzed by RP-HPLC at predetermined intervals (0–24 h). Changes in peak areas of the pure drugs and conjugate at their characteristic retention times to observe the disappearance of T7-SN-38-rucaparib and the appearance of free SN-38 and rucaparib over a 24 h period were monitored.
# [1] = Control incubation of conjugate in enzyme-free buffer pH 6.0; type: in vitro ADME; settings: pH 6.0, no cathepsin B, RP-HPLC, over 24 h
# Experimental: The cleavage profile of T7-SN-38-rucaparib was evaluated by following a published method. […] This mixture was added to 4.9 mL of reaction buffer (150 mM sodium acetate buffer, 12 mM EDTA, 24 mM DTT in H2O, pH 6.0). […] The reaction was allowed to proceed at 37 °C, and samples were taken and analyzed by RP-HPLC at predetermined intervals (0–24 h). Changes in peak areas of the pure drugs and conjugate at their characteristic retention times to observe the disappearance of T7-SN-38-rucaparib and the appearance of free SN-38 and rucaparib over a 24 h period were monitored.
# [2] = XTT cytotoxicity on U87MG cells
# Experimental: U87MG cells (10,000 cells per well) were seeded in 96-well plates and allowed to attach for 24 h. […] To evaluate cytotoxicity, XTT solution was added to each well per manufacturer protocols at 24 and 72 h after treatment. Following a 3-h incubation period, the absorbance of each well was measured at 450 nm using a Biotek ELx808 microplate reader (Lonza, Basel, Switzerland). Average absorbance values of the cells treated with different concentrations of test agents were normalized to those of the untreated cell controls. GraphPad Prism 10 was used to plot percent cell viability.
# U87MG cells (10,000/well), seeded in 96-well plates, were allowed to attach for 24 h. The cells, incubated at 37 °C, were then treated with rucaparib solution at concentrations ranging from 5 nM to 160 nM. To evaluate cytotoxicity, XTT solution was added to each well at 24 and 72 h after treatment per manufacturer protocol. Following a 3-h incubation period, the absorbance of each well was measured at 450 nm using a Biotek ELx808 microplate reader (Lonza). The average absorbance of the cells treated with different concentrations of rucaparib were normalized to those of untreated cell controls. […]
# IC50 values were calculated by concentration-response curve fitting using Microsoft Excel 16.77 (Microsoft Corp). […] Differences between groups were determined by ANOVA, with a p-value < 0.05 deemed statistically significant.
# [3] = system: U87MG cells with blocked transferrin receptors; assay: T7 competition assay with or without exogenous cathepsin B on TfR-blocked U87MG cells; settings: 20 nM drug equivalents, exogenous cathepsin B added, 72 h, XTT, n = 4
# Experimental: In these studies, blocking was done as reported for the transferrin receptor blocking studies above. […] In an additional step, exogenous cathepsin B was added to the treated wells. In a parallel experiment, cells were treated with the same test agents at the same concentrations but without exogenous cathepsin B. XTT assays were conducted at 72 h following the manufacturer’s protocol for cytotoxicity. Percent cell viability was calculated, and the data were plotted using GraphPad Prism 10.
# [4] = XTT cytotoxicity on HEK-293 cells
# Experimental: (§1) HEK-293 cells (15,000/well), seeded in 96-well plates, were allowed to attach for 24 h. […] To evaluate cytotoxicity, XTT solution was added to each well at 24 and 72 h after treatment per manufacturer protocol. Following a 3-h incubation period, the absorbance of each well was measured at 450 nm using a Biotek ELx808 microplate reader (Lonza). Average absorbance values of the cells treated with different concentrations of test agents were normalized to those of untreated cell controls, and percent cell viability was plotted using GraphPad Prism 10.
# (§2) IC50 values were calculated by concentration-response curve fitting using Microsoft Excel 16.77 (Microsoft Corp). Data represent mean ± standard deviation (SD) unless otherwise indicated. Differences between groups were determined by ANOVA, with a p-value < 0.05 deemed statistically significant.
# HEK-293 cells = assay: XTT cytotoxicity on HEK-293 cells; settings: HEK-293 cells, 24 h, p < 0.05, n = 4
# Experimental: as §1, §2
compound,measurement,setting,value
CCc1c2c(nc3ccc(OCc4ccc(NC(=O)[C@H](C)NC(=O)[C@@H](NC(=O)CCCCCNC(=O)COCCOCCOCCNC(=O)CCCCC(=O)N5Cc6ccccc6-c6c(nnn6CCOCCOCCOCCOCCC(=O)N[C@@H](CSC6CC(=O)N(CCC(=O)NCCOCCOCCOCCOCCC(=O)NCCCCCC(=O)N[C@H](C(=O)N[C@@H](C)C(=O)Nc7ccc(COC(=O)N(C)Cc8ccc(-c9[nH]c%10cc(F)cc%11c%10c9CCNC%11=O)cc8)cc7)C(C)C)C6=O)C(=O)NCCOCCOCCOCC(=O)N[C@@H](Cc6c[nH]cn6)C(=O)N[C@@H](C)C(=O)N[C@H](C(=O)N[C@@H](Cc6ccc(O)cc6)C(=O)N6CCC[C@H]6C(=O)N[C@@H](CCCNC(=N)N)C(=O)N[C@@H](Cc6c[nH]cn6)C(=O)O)[C@@H](C)CC)-c6ccccc65)C(C)C)cc4)cc13)-c1cc3c(c(=O)n1C2)COC(=O)[C@]3(O)CC (stereo partly drawn) [T7-SN-38-rucaparib],Percent Cleaved,human liver cathepsin B; time 1 h,17.8%
same,Percent Cleaved,human liver cathepsin B; time 4 h,43.8%
same,Percent Cleaved,human liver cathepsin B; time 8 h,61.6%
same,Percent Cleaved,human liver cathepsin B; time 24 h,87.3%
same,release of free drugs in enzyme-free buffer,[1],< 10%
same,IC50,[2],22.3 nM
same,cytotoxicity with exogenous cathepsin B,[3],comparable cytotoxicity to the cells treated with free drugs
same,IC50,[4],116 nM
same,"cytotoxicity, conjugate versus free drugs",HEK-293 cells,significantly lower cytotoxicity compared to free SN-38-rucaparib
